Paper PMC5292422, “NBS-LRR Protein Pik-H4 Interacts with OsBIHD1 to Balance Rice Blast Resistance and Growth by Coordinating Ethylene-Brassinosteroid Pathway”

T1: OsBIHD1 207-527 (HD domain) (Oryza sativa (rice; Pik-H4 NIL?), UniProt Q6QUW0 207-527)
T1 sequence: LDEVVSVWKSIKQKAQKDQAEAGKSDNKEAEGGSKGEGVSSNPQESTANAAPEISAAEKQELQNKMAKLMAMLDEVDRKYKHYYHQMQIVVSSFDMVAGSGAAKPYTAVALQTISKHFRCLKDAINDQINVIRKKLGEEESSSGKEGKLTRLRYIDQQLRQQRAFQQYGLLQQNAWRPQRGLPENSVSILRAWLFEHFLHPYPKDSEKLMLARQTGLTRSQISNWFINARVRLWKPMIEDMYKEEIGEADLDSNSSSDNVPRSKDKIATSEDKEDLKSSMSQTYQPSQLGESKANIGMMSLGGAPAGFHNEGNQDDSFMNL

B1: CYP734A2 promoter TGTCA probe (dsDNA)
DNA 1: TGCATTGTCAGTTAC
DNA 2: GTAACTGACAATGCA
B2: OsACO3 promoter TGTCA probe (dsDNA)
DNA 1: AAATTCTGTCATCATCA
DNA 2: TGATGATGACAGAATTT

Biological target: T1, OsBIHD1 207-527 (HD domain)
Experiment: EMSA; EMSA: 25 C, 30 min, binding buffer of Beyotime Chemiluminescent EMSA Kit GS009 (composition, salt and pH not stated); 10% polyacrylamide gel, 0.5x TBE
Settings: protein: recombinant; tags: His (pET28a); label: biotin 3'

Binder	binding result
B1	binds
B2	binds
